From article PMC12167799, “The role of human Shu complex in ATP-dependent regulation of RAD51 filaments during homologous recombination–associated DNA damage response” (The Journal of Biological Chemistry, 2025)

Biological target: human RAD51 (human) (UniProt Q06609)
Sequence (Q06609 whole entry): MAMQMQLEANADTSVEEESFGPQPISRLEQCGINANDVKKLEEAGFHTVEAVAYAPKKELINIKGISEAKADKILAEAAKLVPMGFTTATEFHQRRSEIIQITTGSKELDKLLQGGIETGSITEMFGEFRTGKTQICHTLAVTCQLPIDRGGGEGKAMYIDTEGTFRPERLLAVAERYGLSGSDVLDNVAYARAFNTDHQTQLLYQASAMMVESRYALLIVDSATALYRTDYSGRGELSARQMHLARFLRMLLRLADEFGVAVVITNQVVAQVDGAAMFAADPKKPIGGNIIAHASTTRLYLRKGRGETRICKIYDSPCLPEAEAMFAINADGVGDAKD

fluorescence intensity of 5′-6-FAM-labeled RAD51-ssDNA filaments (1 μM RAD51, 15 nM poly-dT39, 2 mM ATP) after addition of 50 nM hSWS1-SWSAP1, 10-s intervals over 60 s: 40%
Substance: human Shu complex hSWS1-SWSAP1, wildtype (from UniProt Q19AV6 1-140; Q6NVH7 1-250)
